Starred links: 1 amine or outer side, 2 acyl side, 3 side chain; linkers in the order of their positions; H or OH if unused. Positions of bridges follow the written chain, without caps; N, C: chain ends. Non-standard residues stand in square brackets, D forms with d. Chains are numbered I, II in the order given. No end group written: not given here. *: point of attachment. TATA = O=C(CC[*:1])N1CN(C(=O)CC[*:2])CN(C(=O)CC[*:3])C1; 1Nal = N[C@@H](Cc1cccc2ccccc12)C(=O)O; Hyp = O=C(O)[C@@H]1C[C@@H](O)CN1; hArg = N=C(N)NCCCC[C@H](N)C(=O)O; Pent4ynoyl = C#CCCC(=O)*
What was measured:
Experiment in all cases: cell-based or functional assay
[1] = biological target: T1, OX40 on OX40 Jurkat reporter cells (Promega CS197704) (UniProt P43489 29-277, limits assumed)
T1 sequence (looked up): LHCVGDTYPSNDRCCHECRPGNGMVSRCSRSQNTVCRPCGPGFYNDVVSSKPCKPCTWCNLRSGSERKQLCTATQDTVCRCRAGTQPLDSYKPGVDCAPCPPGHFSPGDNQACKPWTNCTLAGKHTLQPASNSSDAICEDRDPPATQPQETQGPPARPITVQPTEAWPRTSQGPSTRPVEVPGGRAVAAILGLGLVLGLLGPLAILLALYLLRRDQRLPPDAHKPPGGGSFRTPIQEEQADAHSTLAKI

[2] = biological target: T1, OX40 on OX40 Jurkat reporter cells …; remark: listed apart in the source
[3] = biological target: T1, OX40 on OX40 Jurkat reporter cells …; remark: listed apart in the source

B1: BCY12141, Nectin-4:OX40 heterotandem of BCY11607 [A-(SEQ ID NO: 6)-A-K(Pya)] and BCY8116-PEG12-N3 (peptide)
peptide 1: ACLYSPCWHPLNDCAK(Pent4ynoyl)
peptide 2: CP[1Nal][dD]CM[hArg]DWSTP[Hyp]WC
modifications: linker I:2-I:7-I:14, II:1-II:5-II:15 via TATA; not fully specified (bridges); also: PEG12 linker attached to chain 2, place not given here
EC50 (nM), Promega OX40 cell-activity assay in co-culture with Nectin-4 positive 4T1-D02 tumor cells [1]: 0.59 nM

B2: BCY12019, synthetic tetramer of four BCY11607 [A-(SEQ ID NO: 6)-A-K(Pya)] linked via C-terminal Lys(PYA) to spacer S1A (n = 23) and central hinge moiety A (TET) (peptide)
peptide: ACLYSPCWHPLNDCAK
modifications: linker 2-7-14 via TATA; not fully specified (residue 16); also: tetramer: four BCY11607 monomers clicked via S1A to central hinge A (TET)
agonism in the Promega OX40 cell-activity assay relative to BCY10549 bound to streptavidin [2]: ~10 fold
EC50 (nM), Promega OX40 cell-activity assay (NF-κB luciferase in OX40 Jurkat cells) [3]: 2.6 nM

B3: BCY12721, Nectin-4:OX40 heterotandem (taken as BCY12708 [Ac-A-(SEQ ID NO: 6)-A-K(Pya)] with a PEG5 derivative of BCY8116) (peptide)
peptide 1: Ac-ACLYSPCWHPLNDCAK(Pent4ynoyl)
peptide 2: CP[1Nal][dD]CM[hArg]DWSTP[Hyp]WC
modifications: linker I:2-I:7-I:14, II:1-II:5-II:15 via TATA; not fully specified; also: heterotandem: chain 1 Lys(Pya) linked to PEG5 derivative of chain 2
EC50 (nM), Promega OX40 cell-activity assay in co-culture with Nectin-4 positive 4T1-D02 tumor cells [1]: 0.94 nM

B4: BCY12967, Nectin-4:OX40 heterotandem of a trifunctional PEG3 derivative of BCY8116 and BCY11607 (peptide)
peptide 1: ACLYSPCWHPLNDCAK(Pent4ynoyl)
peptide 2: CP[1Nal][dD]CM[hArg]DWSTP[Hyp]WC
modifications: linker I:2-I:7-I:14, II:1-II:5-II:15 via TATA; not fully specified (bridges); also: two copies of chain 1 (BCY11607) clicked via Lys(Pya) to the trifunctional PEG3 linker
EC50 (nM), Promega OX40 cell-activity assay in co-culture with Nectin-4 positive 4T1-D02 tumor cells [1]: 0.83 nM

Reference: patent US20200354406A1 (Bicycle, published 2020)
